Assay results published in paper PMC10928113, “Molecular architecture and platelet-activating properties of small immune complexes assembled on heparin and platelet factor 4” (Communications Biology, 2024).
Where “and” joins values, the source holds several entries; their conditions need not be identical. Equal entries are not always repeated.

B1: recombinant form of human platelet factor 4 (PF4) (natural protein)
chain: EAEEDGDLQCLCVKTTSQVRPRHITSLEVIKAGPHCPTAQLIATLKNGRKICLDLQAPLYKKIIKKLLES
notes: platelet factor 4 (PF4), human, recombinant; stands as a tetramer in the complexes; also called recombinant PF4; PF4 tetramer
B2: KKO monoclonal anti-PF4/heparin antibody (antibody, V domains shown)
VH: VQLQQSGAELVKPGASVKLSCKASGYTFTNYFIYWVKQRPGQGLEWIGEINPRNGDTDFNEKFESRATLTVDKSSSTAYMQLSSLTSEDSAIYYCTRSPYGNNYGFTYWGQGTLVTVSA
VL: DIQMIQSQKFMSTSVGDRVTVTCKASQNVGTNVAWYQQKPGQSPNALIYSASYRYSGVPDRFTGSGSGTDFTLTITNVQSEDLADYFCQQYNSYPLTFGTGTKLDLK
notes: Whole IgG (measured 152.5 kDa); also called KKO mAb; KKO hybridoma clone 31.2.57.A7; source: KKO hybridoma clone 31.2.57.A7 (ATCC), supernatant, purified (Protein A Sepharose)

Key:
[1] = target: the molecule itself; assay: native MS; PF4 incubated with UFH, SEC sub-fractions of the small complexes; 150 mM ammonium acetate, pH 6.9; masses by limited charge reduction
[2] = target: T1, recombinant form of human platelet factor 4 (PF4) (human, UniProt P02776); assay: native MS; highest-MW SEC sub-fraction of PF4/UFH small complexes incubated with a nearly equimolar amount of KKO (antibody excess up to 33% also tested); 150 mM ammonium acetate, pH 6.9; limited charge reduction; details: both partners purified
T1 construct: platelet factor 4 (PF4), human, recombinant; stands as a tetramer in the complexes; also called recombinant PF4; PF4 tetramer

[3] = target: T1, recombinant form of human platelet …; assay: native MS; PF4·dp20 complexes incubated with a nearly equimolar amount of KKO (0.28 mg/mL and 0.06 mg/mL); 150 mM ammonium acetate, pH 6.9; details: both partners purified

Binder | stoichiometry N [1] | stoichiometry N [2] | stoichiometry N [3]
B1 | 4 subunits (tetramer) |  | 
B2 |  | 1 KKO per complex of one heparin chain and two PF4 tetramers and 2 KKO per complex of one heparin chain and three PF4 tetramers | 1 PF4 tetramer per KKO and 2 PF4 tetramers per KKO
